The target of data set [1] is T1, UP1 (proteolytic product of hnRNP A1) (UniProt P09651 1-196). In words: EMSA.
The target in data set [2] is T1, UP1 (proteolytic product of hnRNP A1). In words: EMSA. This is another data set of the same source. (In EMSA bound probe runs differently from free probe, usually more slowly.)

Like-named read-outs stand apart in the source and are kept apart here.

T1 sequence (P09651 1-196): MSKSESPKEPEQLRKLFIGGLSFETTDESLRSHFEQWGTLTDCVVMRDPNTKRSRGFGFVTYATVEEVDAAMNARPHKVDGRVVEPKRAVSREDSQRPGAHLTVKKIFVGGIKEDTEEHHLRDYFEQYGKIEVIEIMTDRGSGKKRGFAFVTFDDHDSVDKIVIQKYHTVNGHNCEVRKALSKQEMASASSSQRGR

For UGAGAAGGGCGUAGG (ssRNA) [15-mer telomerase RNA], the binding result in data set [1] and in data set [2] was “binds” throughout.

(Values after publication PMC2588520.)
